# Reference: patent US20230322924A1 (Janssen / Centocor, published 2023)
# Positions count from the first letter of the chain named. Names may count otherwise.
# B1: C33B72 (antibody, IgG1, V domains shown)
# VH: QVQLVESGGGVVQPGRSLRLSCAASGFTFSSYGMHWVRQAPGKGLEWVVVISYDGSNKYYADSVKGRFTISRDNSKNTLYLQMNSLRAEDTAVYYCAKDFRDFDWLPPDSTSYHGMDVWGQGTTVTVSS
# VL: SYELTQPPSVSVSPGQTASITCSGDKLGDKYACWYQQKPGQSPVVVIYQDRKRPSGIPERFSGSNFGNTATLTISGTQAMDEADYYCQAWDSSTVVFGGGTKLTVL
# notes: huIgG1 F405L; also called C33F77; C33H65/C33L47
# B2: C33B82 (antibody, IgG1, V domains shown)
# VH: B1 VH with V49A, Y80F, D102Y, T111S, H114Y
# VL: B1 VL with K26E, D29N, I47V
# notes: huIgG1 F405L; also called C33F87; C33H78/C33L57
# B3: C33B73 (antibody, IgG1, V domains shown)
# VH: B1 VH with A23V, V49A, D90G, D102S, T111A
# VL: B1 VL with V45L, R51G, T69K, S92R, S93N
# notes: huIgG1 F405L; also called C33F78; C33H66/C33L60
# B4: C33B55 (antibody, IgG1, V domains shown)
# VH: B1 VH with A40S, V49A, Y60C, N77S, D102S, F103L, H114D
# VL: B1 VL with D25H, Q49K, R51S
# notes: huIgG1 F405L; also called C33F60; C33H45/C33L11
# B5: C33B79 (antibody, IgG1, V domains shown)
# VH: B1 VH with G26R, V49A, Y94H, D102S, T111A
# VL: B1 VL with S13P, V45L, R51N, F66S, D91G, S92R, S93N
# notes: huIgG1 F405L; also called C33F84; C33H74/C33L38
# B6: C33B83 (antibody, V domains shown)
# VH: B1 VH with S31A, V49A, D90G, D102S, T111A
# VL: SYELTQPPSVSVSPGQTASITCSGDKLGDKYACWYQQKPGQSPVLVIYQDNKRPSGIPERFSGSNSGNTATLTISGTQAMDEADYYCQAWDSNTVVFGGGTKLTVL
# notes: huIgG1 F405L; also called C33F88; C33H81/C33L53
# Target: T1, Cyno CD33 ECD-HSA (cynomolgus monkey)
# T1 construct: Cyno CD33 extracellular domain fused to monomeric human serum albumin and a six-histidine tag; also called C33W1
# Assay: ProteOn SPR, mAb captured by anti-human Fc, 1:1 Langmuir fit
# Protocol: (§1) The panel of mAbs was then further characterized for full affinity analysis as well as epitope binning. The binding of anti-CD33 mAbs to recombinant human CD33 ECD-HSA (C33W2) and cyno CD33 ECD-HSA (C33W1) was measured by ProteOn SPR (Bio-Rad). […] Different mAbs were captured on the anti-human Fc IgG surface at 0.25 or 0.5 μg/ml (160-300 RU) in vertical ligand orientation, with the 6th ligand channel as no ligand surface control. Human and cyno CD33-HSA proteins at 0.3 μM concentration in 3-fold dilution series of 5 concentrations flew in as analyte to bind to captured mAbs in the horizontal orientation. A buffer sample was also injected in the 6th channel to monitor the dissociation of captured mAb and baseline stability. […] The raw biding data were processed by double referencing after subtracting the response data from: 1) the inter-spot to correct for the non-specific interactions between the Ag and the empty chip surface; 2) the buffer channel to correct for baseline drifting due to the dissociation of captured mAb surface over time. The processed data at all antigen concentrations for each mAb were globally fit to a 1:1 simple Langmuir binding model to extract estimates of the kinetic (kₒₙ, koff) and affinity (Kd) constants.
Kd [nM],koff [s⁻¹],kon [M⁻¹ s⁻¹],Binder
0.587,0.00054,919000,B1
1.38,0.000751,545000,B2
0.846,0.000508,600000,B3
0.0723,8.37e-05,1.16e+06,B4
4.01,0.0022,548000,B5
11.7,0.00288,247000,B6

# Target: Human CD33 ECD-HSA (human)
# Assay: as above
# Protocol: as §1
# Chain of Human CD33 ECD-HSA (human) (chain, as listed by the source): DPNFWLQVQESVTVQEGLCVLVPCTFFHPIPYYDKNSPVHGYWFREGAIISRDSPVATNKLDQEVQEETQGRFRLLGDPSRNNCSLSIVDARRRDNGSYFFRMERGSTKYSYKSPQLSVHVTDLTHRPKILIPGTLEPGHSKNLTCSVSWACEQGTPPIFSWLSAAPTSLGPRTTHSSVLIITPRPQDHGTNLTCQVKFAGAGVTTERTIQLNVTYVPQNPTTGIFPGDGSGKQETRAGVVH
Kd [nM],koff [s⁻¹],kon [M⁻¹ s⁻¹],Binder
0.23,0.0002,871000,B1
0.61,0.00027,445000,B2
0.1,5.59e-05,559000,B3
0.26,0.000253,985000,B4
0.76,0.00039,515000,B5
1.93,0.000521,270000,B6

# Target: T1, Cyno CD33 ECD-HSA
# Assay: SPRi off-rate screen (IBIS MX96), mAb captured by anti-human Fc; column head prints Cyno CD33 binding KD
# Protocol: (§2) To begin assessing the biophysical binding properties of the purified mAbs an off-rate screen was performed. 76 OMNIRat anti-CD33 mAbs were tested for binding to recombinant human CD33 ECD-HSA (C33W2) and cyno CD33 ECD-HSA (C33W1) proteins (Janssen production) and the off-rate was measured by IBIS MX96 SPRi array platform (Carterra; Newton, PA). […] The sensor chip was transferred to the Continuous Flow Microspotter (CFM) unit to capture each anti-CD33 mAb at 10 μg/ml for 10 minutes. Binding was measured on IBIS SPRi by single cycle kinetics without regeneration. […] The raw binding data (.trix file format) were referenced and aligned using SprintX software (Wasatch, Ver 1.9.3.2), then exported (.ibmx file format) to Scrubber software (Ver. 2.0) for 1:1 binding kinetic analyses (Wasatch, version 2.0.0.33) to extract the koff results.
row,koff [s⁻¹],Binder
1,0.000763,B1
2,0.00067,B2
3,0.000408,B3
4,0.000116,B4
5,0.00682,B5
6,0.00217,B6

# Target: Human CD33 ECD-HSA (human)
# Assay: SPRi off-rate screen (IBIS MX96), mAb captured by anti-human Fc; column head prints KD
# Protocol: as §2
row,koff [s⁻¹],Binder
1,0.000284,B1
2,0.000341,B2
3,9.12e-05,B3
4,0.000215,B4
5,0.000328,B5
6,0.000461,B6

# Target: T2, Human CD33 full length, expressed on HEK293F cells (human, UniProt P20138 18-364)
# T2 construct: HEK293F cells transduced with lentivirus containing full length human CD33; also called huCD33
# Assay: flow cytometry, HEK293F cells expressing human CD33
# Protocol: (§3) OMNIRat antibodies identified via immunization, v-region cloned and subsequently expressed and purified were characterized further for binding to CD33 expressing cells and binding to recombinant antigens. The purified antibodies were assessed for binding to stably transfected HEK293F cells expressing human CD33 or cyno CD33 (generation described above) along with the parental HEK293F as negative control. Cells were harvested from tissue culture flasks using non-enzymatic dissociation buffer (Thermo Scientific). The flasks were rinsed twice with PBS and dissociation buffer was added to the flask, and the flask was incubated for 10 minutes at 37° C. until the cells became non-adherent. The cells were centrifuged at 300 g for 5 minutes and resuspended at 1.0×10⁶ cells/ml in staining buffer (Becton Dickinson; Franklin Lakes, NJ). 50,000 cells/well of each cell type was plated in 50 μl of staining buffer in round bottom plates (Becton Dickinson). […] 100 μl staining buffer was added to all wells of each plate, the plates were spun at 300 g for 5 min, the buffer was removed, 200 μl staining buffer was added to all wells of each plate, the plates were spun at 300 g for 5 min, and the buffer was removed. 50 μl of 2 μg/ml of Goat-anti-human Fc AF647 secondary antibody (Jackson Immunoresearch; West Grove, PA) was added to all wells of the plates, and the plates were incubated for 30 min at 4° C. 100 μl staining buffer was added to all wells of the plates, the plates were spun at 300 g for 5 min, and the buffer was removed. 200 μl running buffer (running buffer is Staining buffer, 1 mM EDTA, 0.1% Pluronic Acid) was added to all wells of the plates, the plates were spun at 300 g for 5 min, and the buffer was removed. 30 μl running buffer containing Sytox Green live/dead dye (ThermoFisher) was added to all wells with cells and the plates were read on an iQue IntelliCyt flow cytometer. Cells were gated on forward vs. side scatter to eliminate debris, then on singlets and then on live cells which excluded the Sytox stain. Antibody binding was assessed by the mean fluorescence intensity in the AF647 channel.
# T2 sequence (P20138 18-364 limits assumed): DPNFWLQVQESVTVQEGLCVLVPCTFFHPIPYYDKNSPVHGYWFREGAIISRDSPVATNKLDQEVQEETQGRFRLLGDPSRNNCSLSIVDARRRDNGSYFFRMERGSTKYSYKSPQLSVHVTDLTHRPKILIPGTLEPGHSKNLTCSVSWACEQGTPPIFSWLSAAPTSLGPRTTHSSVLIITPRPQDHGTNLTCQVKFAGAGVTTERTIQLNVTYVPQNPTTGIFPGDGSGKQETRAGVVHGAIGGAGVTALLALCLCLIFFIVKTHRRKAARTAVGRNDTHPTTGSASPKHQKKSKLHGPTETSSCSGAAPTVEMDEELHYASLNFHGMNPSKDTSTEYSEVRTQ
MFI at 0 nM mAb (background) [MFI],MFI at 0.6 nM mAb [MFI],MFI at 6 nM mAb [MFI],MFI at 60 nM mAb [MFI],Binder
93.3,12500,105000,328000,B1
73.4,5030,41300,189000,B2
94,4030,33400,201000,B3
105,7630,59200,188000,B4
77.8,4990,41900,237000,B5
87.4,1020,7860,93000,B6

# Target: T3, Cyno CD33 full length, expressed on HEK293F cells (cynomolgus monkey)
# T3 construct: HEK293F cells transduced with lentivirus containing full length cyno CD33 (Genbank XP_005590138.1); also called cyCD33
# Assay: flow cytometry, HEK293F cells expressing cyno CD33
# Protocol: as §3
MFI at 0 nM mAb (background) [MFI],MFI at 0.6 nM mAb [MFI],MFI at 6 nM mAb [MFI],MFI at 60 nM mAb [MFI],Binder
90.8,3890,14000,19400,B1
84.2,1540,6620,14300,B2
72.5,796,6990,14800,B3
69.4,2430,9990,16000,B4
63.6,1080,6430,15500,B5
87.3,159,687,5300,B6
